Experimental data taken from paper PMC9482650, “Quantitative fragmentomics allow affinity mapping of interactomes” (Nature Communications, 2022).

T1: DLG3_2, Q92796
T1 sequence (Q92796 221-321, limits assumed, looked up): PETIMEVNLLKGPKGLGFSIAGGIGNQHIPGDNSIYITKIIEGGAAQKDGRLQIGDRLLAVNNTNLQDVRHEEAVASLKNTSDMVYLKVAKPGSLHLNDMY

T2: DFNB31_3, Q9P202
T2 sequence (Q9P202 811-907, limits assumed, looked up): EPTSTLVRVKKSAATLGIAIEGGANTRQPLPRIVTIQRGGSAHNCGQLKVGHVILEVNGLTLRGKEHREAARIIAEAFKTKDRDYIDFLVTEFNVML

T3: DLG3_3, Q92796
T3 sequence (Q92796 374-475, limits assumed, looked up): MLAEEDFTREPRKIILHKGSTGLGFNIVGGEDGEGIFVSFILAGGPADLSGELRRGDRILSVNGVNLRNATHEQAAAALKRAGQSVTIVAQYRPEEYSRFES

T4: HTRA4, P83105
T4 sequence (P83105 378-476, limits assumed, looked up): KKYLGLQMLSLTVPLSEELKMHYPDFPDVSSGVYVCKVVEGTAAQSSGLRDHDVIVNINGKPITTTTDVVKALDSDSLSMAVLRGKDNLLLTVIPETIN

T5: LIN7C, Q9NUP9
T5 sequence (Q9NUP9 88-185, limits assumed, looked up): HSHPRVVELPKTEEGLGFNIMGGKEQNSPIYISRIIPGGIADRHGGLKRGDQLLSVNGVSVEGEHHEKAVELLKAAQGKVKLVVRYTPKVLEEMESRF

T6: PDZD2_2, O15018
T6 sequence (O15018 329-429, limits assumed, looked up): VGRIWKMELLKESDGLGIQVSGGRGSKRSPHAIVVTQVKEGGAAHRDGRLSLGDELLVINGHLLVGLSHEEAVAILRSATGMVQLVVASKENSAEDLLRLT

T7: MPP7, Q5T2T1
T7 sequence (Q5T2T1 134-230, limits assumed, looked up): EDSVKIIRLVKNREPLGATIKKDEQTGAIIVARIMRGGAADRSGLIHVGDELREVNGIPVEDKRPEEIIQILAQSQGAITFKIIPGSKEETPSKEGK

T8: RADIL, Q96JH8
T8 sequence (Q96JH8 971-1071, limits assumed, looked up): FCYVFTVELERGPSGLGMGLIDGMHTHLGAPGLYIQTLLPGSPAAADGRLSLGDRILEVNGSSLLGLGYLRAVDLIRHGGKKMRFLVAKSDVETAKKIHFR

T9: PTPN13_1, Q12923
T9 sequence (Q12923 1088-1188, limits assumed, looked up): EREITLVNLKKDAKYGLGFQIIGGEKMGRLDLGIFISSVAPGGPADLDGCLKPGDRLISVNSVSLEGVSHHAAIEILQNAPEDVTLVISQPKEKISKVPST

T10: TX1BP3, O14907
T10 sequence (O14907 10-122, limits assumed, looked up): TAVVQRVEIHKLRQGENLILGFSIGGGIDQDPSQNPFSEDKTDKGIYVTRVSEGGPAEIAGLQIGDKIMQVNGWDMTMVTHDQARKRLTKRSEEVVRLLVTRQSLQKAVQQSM

T11: DFNB31_2, Q9P202
T11 sequence (Q9P202 274-371, limits assumed, looked up): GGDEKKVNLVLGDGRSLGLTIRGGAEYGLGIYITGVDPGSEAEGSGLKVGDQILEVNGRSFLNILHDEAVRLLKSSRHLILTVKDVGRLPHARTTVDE

B1: STK16, O75716 (peptide)
chain: PAPGQHTTQI
B2: EFNB3, Q15768 (peptide)
chain: QSPPNIYYKV

The binders below were run against Inadl_6, Q8NI35 (assay: holdup assay). Settings: plain residues with an end cap or a label only (N-terminal biotin on a linker: ado-ado).
Design: key: below the threshold = too weak to quantify, mostly under pKd 3.1 to 4

Sequence of Inadl_6, Q8NI35 (Q8NI35 1058-1167): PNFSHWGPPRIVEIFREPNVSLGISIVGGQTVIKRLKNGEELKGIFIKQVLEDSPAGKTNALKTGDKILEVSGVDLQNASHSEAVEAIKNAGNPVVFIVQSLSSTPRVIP

| Binder | pKd |
| --- | --- |
| B1 | below the threshold |
| B2 | below the threshold |

What follows are binders tested against FRMPD2_3, Q68DX3 (assay: holdup assay). Settings: plain residues with an end cap or a label only (N-terminal biotin on a linker: ado-ado).
Design: key: below the threshold = too weak to quantify, mostly under pKd 3.1 to 4

Sequence of FRMPD2_3, Q68DX3 (Q68DX3 1073-1166): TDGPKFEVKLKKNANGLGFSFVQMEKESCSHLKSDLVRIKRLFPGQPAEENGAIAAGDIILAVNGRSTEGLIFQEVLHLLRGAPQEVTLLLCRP

| Binder | pKd |
| --- | --- |
| B1 | below the threshold |
| B2 | below the threshold |

These binders were tested against T1, DLG3_2, Q92796 (assay: holdup assay). Settings: plain residues with an end cap or a label only (N-terminal biotin on a linker: ado-ado).
Design: key: below the threshold = too weak to quantify, mostly under pKd 3.1 to 4

| Binder | pKd |
| --- | --- |
| B1 | 4.11 |
| B2 | below the threshold |

What follows are binders tested against DLG4_3, P78352 (assay: holdup assay). Settings: plain residues with an end cap or a label only (N-terminal biotin on a linker: ado-ado).
Design: key: below the threshold = too weak to quantify, mostly under pKd 3.1 to 4

Sequence of DLG4_3, P78352 (P78352 306-403): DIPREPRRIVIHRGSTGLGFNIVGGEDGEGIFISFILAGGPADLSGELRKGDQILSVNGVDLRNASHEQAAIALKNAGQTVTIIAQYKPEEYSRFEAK

| Binder | pKd |
| --- | --- |
| B1 | below the threshold |
| B2 | below the threshold |

What follows are binders tested against T2, DFNB31_3, Q9P202 (assay: holdup assay). Settings: plain residues with an end cap or a label only (N-terminal biotin on a linker: ado-ado).
Design: key: below the threshold = too weak to quantify, mostly under pKd 3.1 to 4

| Binder | pKd |
| --- | --- |
| B1 | 4.23 |
| B2 | 4.1 |

These binders were tested against HTRA2, O43464 (assay: holdup assay). Settings: plain residues with an end cap or a label only (N-terminal biotin on a linker: ado-ado).
Design: key: below the threshold = too weak to quantify, mostly under pKd 3.1 to 4

Sequence of HTRA2, O43464 (O43464 355-458): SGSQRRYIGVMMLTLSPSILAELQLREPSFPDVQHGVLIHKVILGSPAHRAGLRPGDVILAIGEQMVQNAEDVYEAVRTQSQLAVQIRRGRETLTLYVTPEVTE

| Binder | pKd |
| --- | --- |
| B1 | below the threshold |
| B2 | 4.3 |

Each binder was assayed against PICK1, Q9NRD5 (assay: holdup assay). Settings: plain residues with an end cap or a label only (N-terminal biotin on a linker: ado-ado).
Design: key: below the threshold = too weak to quantify, mostly under pKd 3.1 to 4

Sequence of PICK1, Q9NRD5 (Q9NRD5 17-115): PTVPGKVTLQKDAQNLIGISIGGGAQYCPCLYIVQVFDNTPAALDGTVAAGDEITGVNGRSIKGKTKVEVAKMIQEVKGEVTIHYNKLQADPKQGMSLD

| Binder | pKd |
| --- | --- |
| B1 | 4.07 |
| B2 | below the threshold |

Each binder was assayed against GRIP2_4, Q9C0E4 (assay: holdup assay). Settings: plain residues with an end cap or a label only (N-terminal biotin on a linker: ado-ado).
Design: key: below the threshold = too weak to quantify, mostly under pKd 3.1 to 4

Sequence of GRIP2_4, Q9C0E4 (Q9C0E4 446-548): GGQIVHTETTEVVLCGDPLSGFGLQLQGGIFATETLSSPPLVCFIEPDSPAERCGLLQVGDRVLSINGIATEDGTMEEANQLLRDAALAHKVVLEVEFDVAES

| Binder | pKd |
| --- | --- |
| B1 | below the threshold |
| B2 | below the threshold |

These binders were tested against IL16_3, Q14005 (assay: holdup assay). Settings: plain residues with an end cap or a label only (N-terminal biotin on a linker: ado-ado).
Design: key: below the threshold = too weak to quantify, mostly under pKd 3.1 to 4

Sequence of IL16_3, Q14005 (Q14005 1107-1207): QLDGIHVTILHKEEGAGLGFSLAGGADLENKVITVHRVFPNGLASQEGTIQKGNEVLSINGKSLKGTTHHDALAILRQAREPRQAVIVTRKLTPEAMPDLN

| Binder | pKd |
| --- | --- |
| B1 | below the threshold |
| B2 | below the threshold |

These binders were tested against T3, DLG3_3, Q92796 (assay: holdup assay). Settings: plain residues with an end cap or a label only (N-terminal biotin on a linker: ado-ado).
Design: key: below the threshold = too weak to quantify, mostly under pKd 3.1 to 4

| Binder | pKd |
| --- | --- |
| B1 | below the threshold |
| B2 | 3.56 |

What follows are binders tested against T4, HTRA4, P83105 (assay: holdup assay). Settings: plain residues with an end cap or a label only (N-terminal biotin on a linker: ado-ado).
Design: key: below the threshold = too weak to quantify, mostly under pKd 3.1 to 4

| Binder | pKd |
| --- | --- |
| B1 | 3.8 |
| B2 | below the threshold |

The binders below were run against T5, LIN7C, Q9NUP9 (assay: holdup assay). Settings: plain residues with an end cap or a label only (N-terminal biotin on a linker: ado-ado).
Design: key: below the threshold = too weak to quantify, mostly under pKd 3.1 to 4

| Binder | pKd |
| --- | --- |
| B1 | 3.98 |
| B2 | below the threshold |

What follows are binders tested against Inadl_4, Q8NI35 (assay: holdup assay). Settings: plain residues with an end cap or a label only (N-terminal biotin on a linker: ado-ado).
Design: key: below the threshold = too weak to quantify, mostly under pKd 3.1 to 4

Sequence of Inadl_4, Q8NI35 (Q8NI35 547-651): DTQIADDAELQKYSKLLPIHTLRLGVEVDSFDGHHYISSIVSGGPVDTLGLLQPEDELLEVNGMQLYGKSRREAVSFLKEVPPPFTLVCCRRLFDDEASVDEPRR

| Binder | pKd |
| --- | --- |
| B1 | below the threshold |
| B2 | 3.51 |

What follows are binders tested against SCRIB_3, Q14160 (assay: holdup assay). Settings: plain residues with an end cap or a label only (N-terminal biotin on a linker: ado-ado).
Design: key: below the threshold = too weak to quantify, mostly under pKd 3.1 to 4

Sequence of SCRIB_3, Q14160 (Q14160 999-1103): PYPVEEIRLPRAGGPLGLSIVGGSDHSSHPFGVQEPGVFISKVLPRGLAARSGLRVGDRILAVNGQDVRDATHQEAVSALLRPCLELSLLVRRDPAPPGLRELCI

| Binder | pKd |
| --- | --- |
| B1 | 4.18 |
| B2 | below the threshold |

The binders below were run against T6, PDZD2_2, O15018 (assay: holdup assay). Settings: plain residues with an end cap or a label only (N-terminal biotin on a linker: ado-ado).
Design: key: below the threshold = too weak to quantify, mostly under pKd 3.1 to 4

| Binder | pKd |
| --- | --- |
| B1 | 3.91 |
| B2 | 3.67 |

The binders below were run against T7, MPP7, Q5T2T1 (assay: holdup assay). Settings: plain residues with an end cap or a label only (N-terminal biotin on a linker: ado-ado).
Design: key: below the threshold = too weak to quantify, mostly under pKd 3.1 to 4

| Binder | pKd |
| --- | --- |
| B1 | below the threshold |
| B2 | 3.66 |

What follows are binders tested against MAST1, Q9Y2H9 (assay: holdup assay). Settings: plain residues with an end cap or a label only (N-terminal biotin on a linker: ado-ado).
Design: key: below the threshold = too weak to quantify, mostly under pKd 3.1 to 4

Sequence of MAST1, Q9Y2H9 (Q9Y2H9 962-1065): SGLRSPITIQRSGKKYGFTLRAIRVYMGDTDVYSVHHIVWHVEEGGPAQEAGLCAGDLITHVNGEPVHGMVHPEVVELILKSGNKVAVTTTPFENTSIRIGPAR

| Binder | pKd |
| --- | --- |
| B1 | 4.37 |
| B2 | 4.07 |

These binders were tested against MAGI2_2, Q86UL8 (assay: holdup assay). Settings: plain residues with an end cap or a label only (N-terminal biotin on a linker: ado-ado).
Design: key: below the threshold = too weak to quantify, mostly under pKd 3.1 to 4

Sequence of MAGI2_2, Q86UL8 (Q86UL8 410-522): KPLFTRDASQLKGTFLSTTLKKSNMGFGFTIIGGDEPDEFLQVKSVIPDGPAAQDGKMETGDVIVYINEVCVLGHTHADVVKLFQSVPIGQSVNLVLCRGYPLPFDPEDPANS

| Binder | pKd |
| --- | --- |
| B1 | below the threshold |
| B2 | below the threshold |

These binders were tested against T8, RADIL, Q96JH8 (assay: holdup assay). Settings: plain residues with an end cap or a label only (N-terminal biotin on a linker: ado-ado).
Design: key: below the threshold = too weak to quantify, mostly under pKd 3.1 to 4

| Binder | pKd |
| --- | --- |
| B1 | 3.75 |
| B2 | 4.29 |

These binders were tested against T9, PTPN13_1, Q12923 (assay: holdup assay). Settings: plain residues with an end cap or a label only (N-terminal biotin on a linker: ado-ado).
Design: key: below the threshold = too weak to quantify, mostly under pKd 3.1 to 4

| Binder | pKd |
| --- | --- |
| B1 | below the threshold |
| B2 | below the threshold |

The binders below were run against LAP2, Q96RT1 (assay: holdup assay). Settings: plain residues with an end cap or a label only (N-terminal biotin on a linker: ado-ado).
Design: key: below the threshold = too weak to quantify, mostly under pKd 3.1 to 4

Sequence of LAP2, Q96RT1 (Q96RT1 other isoform, or with tags, fused parts or gaps): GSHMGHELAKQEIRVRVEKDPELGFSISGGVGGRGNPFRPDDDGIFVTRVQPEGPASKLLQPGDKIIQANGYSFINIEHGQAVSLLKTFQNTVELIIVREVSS

| Binder | pKd |
| --- | --- |
| B1 | below the threshold |
| B2 | below the threshold |

These binders were tested against MAGI2_5, Q86UL8 (assay: holdup assay). Settings: plain residues with an end cap or a label only (N-terminal biotin on a linker: ado-ado).
Design: key: below the threshold = too weak to quantify, mostly under pKd 3.1 to 4

Sequence of MAGI2_5, Q86UL8 (Q86UL8 915-1017): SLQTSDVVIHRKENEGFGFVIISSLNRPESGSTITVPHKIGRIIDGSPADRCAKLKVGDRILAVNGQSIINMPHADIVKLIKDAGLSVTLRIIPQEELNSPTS

| Binder | pKd |
| --- | --- |
| B1 | below the threshold |
| B2 | below the threshold |

What follows are binders tested against T10, TX1BP3, O14907 (assay: holdup assay). Settings: plain residues with an end cap or a label only (N-terminal biotin on a linker: ado-ado).
Design: key: below the threshold = too weak to quantify, mostly under pKd 3.1 to 4

| Binder | pKd |
| --- | --- |
| B1 | 4.12 |
| B2 | below the threshold |

What follows are binders tested against T11, DFNB31_2, Q9P202 (assay: holdup assay). Settings: plain residues with an end cap or a label only (N-terminal biotin on a linker: ado-ado).
Design: key: below the threshold = too weak to quantify, mostly under pKd 3.1 to 4

| Binder | pKd |
| --- | --- |
| B1 | below the threshold |
| B2 | below the threshold |

These binders were tested against Inadl_5, Q8NI35 (assay: holdup assay). Settings: plain residues with an end cap or a label only (N-terminal biotin on a linker: ado-ado).
Design: key: below the threshold = too weak to quantify, mostly under pKd 3.1 to 4

Sequence of Inadl_5, Q8NI35 (Q8NI35 673-780): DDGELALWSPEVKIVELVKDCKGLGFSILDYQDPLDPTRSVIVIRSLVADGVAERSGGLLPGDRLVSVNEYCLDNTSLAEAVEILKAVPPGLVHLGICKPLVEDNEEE

| Binder | pKd |
| --- | --- |
| B1 | below the threshold |
| B2 | below the threshold |

What follows are binders tested against NOS1, P29475 (assay: holdup assay). Settings: plain residues with an end cap or a label only (N-terminal biotin on a linker: ado-ado).
Design: key: below the threshold = too weak to quantify, mostly under pKd 3.1 to 4

Sequence of NOS1, P29475 (P29475 9-101): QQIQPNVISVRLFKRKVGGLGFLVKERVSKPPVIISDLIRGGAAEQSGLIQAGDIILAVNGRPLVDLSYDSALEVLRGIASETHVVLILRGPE

| Binder | pKd |
| --- | --- |
| B1 | 3.69 |
| B2 | 3.53 |

These binders were tested against Inadl_1, Q8NI35 (assay: holdup assay). Settings: plain residues with an end cap or a label only (N-terminal biotin on a linker: ado-ado).
Design: key: below the threshold = too weak to quantify, mostly under pKd 3.1 to 4

Sequence of Inadl_1, Q8NI35 (Q8NI35 113-229): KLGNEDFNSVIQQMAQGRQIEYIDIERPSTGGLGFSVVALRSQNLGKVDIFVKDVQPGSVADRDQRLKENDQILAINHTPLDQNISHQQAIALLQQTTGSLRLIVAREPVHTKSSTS

| Binder | pKd |
| --- | --- |
| B1 | below the threshold |
| B2 | 3.99 |
